Results as given in FireProtDB (doi:10.1021/bi049320b).

Conditions: Bacillus amyloliquefaciens, pH 8, 25 °C, Urea, Fluorescence, Tris-HCl 30 mM, whole UniProt chain shown

B1: Barstar wild type, P11540 (protein)
chain: MKKAVINGEQIRSISDLHQTLKKELALPEYYGENLDALWDCLTGWVEYPLVLEWRQFEQSKQLTENGAESVLQVFREAKAEGCDITIILS
KCl 0.5 M
  denaturant m value: 1.12 kcal/mol/M
  unfolding free energy: 5.8 kcal/mol
KCl 1.0 M
  denaturant m value: 1.19 kcal/mol/M
  unfolding free energy: 6.9 kcal/mol
  denaturant m value: 1.16 kcal/mol/M
  unfolding free energy: 4.8 kcal/mol
